The results in this text go back to patent publication US20240279328A1 (Johns Hopkins, published 2024).

The target in test [1] is T1, human Interleukin-2 (human, UniProt P60568 21-153, biotinylated (site not stated) when immobilised on streptavidin biosensors; soluble in the competition studies). The test can be described thus: cell-based or functional assay.
Test [2] has as its target T1, human Interleukin-2. In words: BLI, kinetic KD, immobilised human IL-2, soluble antibody. A general note: BLI is a label-free optical method that tracks binding on a fibre tip over time.
For test [3], the target named is T1, human Interleukin-2. The test can be described thus: BLI (Octet), immobilised human IL-2, soluble antibody, 1:1 Langmuir fit.
The target of test [4] is T1, human Interleukin-2. The test can be described thus: BLI, equilibrium KD from titration curve, immobilised human IL-2, soluble antibody; Equilibrium KD, not kinetic KD.

T1 sequence (P60568 21-153 limits assumed): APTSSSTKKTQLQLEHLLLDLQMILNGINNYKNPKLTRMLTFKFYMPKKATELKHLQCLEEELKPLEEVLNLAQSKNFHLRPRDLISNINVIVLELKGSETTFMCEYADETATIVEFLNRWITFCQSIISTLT

B1: F5111 antibody (wild type anti-hIL2 antibody, human IgG1, lambda light chain) (antibody)
heavy: not shown
light: GSNFMLTQPHSVSESPGKTVTISCTRSSGSIASNYVQWYQQRPGSSPTTVIYEDNQRPSGVPDRFSGSIDSSSNSASLTISGLKTEDEADYYCQSYDSSNVVFGGGTKLTVLGQPKAAPSVTLFPPSSEELQANKATLVCLISDFYPGAVTVAWKADSSPVKAGVETTTPSKQSNNKYAASSYLSLTPEQWKSHRSYSCQVTHEGSTVEKTVAPTECS
notes: Expressed in CHO cells, purified on protein G; also called F5111 WT; parent F5111 mAb
Take B1: in the test with human Interleukin-2 [1], the “YT+ EC50 (STAT5 phosphorylation, IL-2Rα+ YT-1 cells)” value was 0.15 nM and the “YT- EC50 (STAT5 phosphorylation, IL-2Rα- YT-1 cells)” value was 0.66 nM. The molecule further yielded a Kd with human Interleukin-2 [2] of 0.63 nM. Besides, in the test with human Interleukin-2 [3], the off-rate constant (koff) came to 0.00022 s⁻¹ and the association rate constant (kon) was 360000 M⁻¹ s⁻¹. For the same molecule, the Kd with human Interleukin-2 [4] is 6.5 nM.

The Kd is a measure of binding affinity in units of concentration. By koff is commonly meant the first-order rate constant of dissociation. The low end stands for a long-lived complex, the high end for a short-lived complex. What is called kon is the rate constant with which the complex forms. A higher kon goes with fast association.
